One block for each molecule: values may come before it.
What was measured:
[1] = target: GFP-OsKCH2(289–767)^T (not stated | O. sativa); assay: single-molecule photobleaching (TIRF microscopy); GFP-tagged motors bound to surface-immobilized microtubules in the single-molecule motility buffer without ATP, room temperature; photobleaching steps counted
[2] = target: GFP-OsKCH2(289–767) (O. sativa); assay: sucrose gradient centrifugation; 5–20% sucrose gradient in BRB80 with 25 mM KCl, 150,000 x g, 4 °C, 18 h; fractions by SDS-PAGE; standards CA, BSA, AD, amylase, apoferritin
[3] = target: GFP-OsKCH2(289–767) (O. sativa); assay: single-molecule photobleaching (TIRF microscopy); GFP-tagged motors bound to surface-immobilized microtubules in the single-molecule motility buffer without ATP, room temperature; photobleaching steps counted
[4] = target: GFP-OsKCH2(289–720) (O. sativa); assay: sucrose gradient centrifugation; 5–20% sucrose gradient in BRB80 with 25 mM KCl, 150,000 x g, 4 °C, 18 h; fractions by SDS-PAGE; standards CA, BSA, AD, amylase, apoferritin
[5] = target: GFP-OsKCH1/KCH2 (O. sativa) (UniProt Q0IMS9); assay: single-molecule photobleaching (TIRF microscopy); GFP-tagged motors bound to surface-immobilized microtubules in the single-molecule motility buffer without ATP, room temperature; photobleaching steps counted
[6] = target: the molecule itself; assay: not stated; oligomeric state of GFP-OsKCH1(292–744), Supplementary Fig. 5d, e; legend not shown

stoichiometry N [1]: 4
Molecule: GFP-OsKCH2(289–767)^T (domain or fragment)

stoichiometry N [2]: 2
stoichiometry N [3]: 2
Molecule: GFP-OsKCH2(289–767) (domain or fragment)

stoichiometry N [4]: 2
Molecule: GFP-OsKCH2(289–720) (domain or fragment)

stoichiometry N [5]: 2
Molecule: GFP-OsKCH1/KCH2 (from UniProt Q0IMS9 292-705) (domain or fragment)

B1: GFP-OsKCH1(292–744) (domain or fragment, O. sativa, UniProt Q0IMS9 292-744, looked up)
chain: GEVKQFQLEAQTNFDVQQKQIQELKGALSFVKSGMEQLRLQYSEEFAKLGKHFYTLSNAASSYHKVLEENRKLYNQIQDLKGNIRVYCRVRPFLPGHRSLSSSVADTEERTITIITPTKYGKDGCKSFSFNRVFGPASTQEEVFSDMQPLIRSVLDGFNVCIFAYGQTGSGKTFTMSGPKVLTEESLGVNYRALNDLFNIKAQRKGTIDYEISVQMIEIYNEQVRDLLQDGGNRRLEIRNTPQKGLAVPDASIVPVTSTADVVELMNQGQKNRAVGSTAINDRSSRSHSCLSVHVQGKYLTSGAMLRGCMHLVDLAGSERVDKSEVVGDRLKEAQYINKSLSALGDVIASLAQKNSHVPYRNSKLTQLLQDSLGGQAKTLMFVHVSPELDAVGETISTLKFAERVASVELGAAKANKEGSEVRELKEQIATLKAALAKKEGEPENIQSTQSSP
notes: codon-optimized synthetic cDNA; source: E. coli BL21 Rosetta (DE3), purified (Talon beads); not shown: GFP, N-terminal, kept
stoichiometry N [6]: 2
